In PMC12575831:
pKd: −log10 of the molar value.

Tested on: PUS7 (pseudouridine synthase 7) (Homo sapiens)
Experiment: EMSA
Conditions: 1 mM Mg2+; 40 nM RNA, 0-500 nM PUS7; none (unmodified IVT, U250); 10 mM Tris-HCl pH 7.5, 100 mM KCl, 1 mM MgCl2, 0.1 mM DTT, 5% glycerol; 37 °C 30 min; gel 4-20% TBE at 4 °C

Substance: in vitro-transcribed 7SK snRNA
- pKd: 7.01
